B1: Meiotic spindle formation protein mei-1 (Caenorhabditis elegans), P34808 (parent)
chain: MNGDVQSVIRGYLERAQVAKTMSDAGRWNEAGDLLRQLMTDVKSCKISASNRDEHDARNTFLRALEANLKLVQQNVRDEDDLHEAMTRQSGSPEPPADPDVWSKPSPPLPSSSKFGATKKGVGAAGPRPREISKSTSSMSTNPADVKPANPTQGILPQNSAGDSFDASAYDAYIVQAVRGTMATNTENTMSLDDIIGMHDVKQVLHEAVTLPLLVPEFFQGLRSPWKAMVLAGPPGTGKTLIARAIASESSSTFFTVSSTDLSSKWRGDSEKIVRLLFELARFYAPSIIFIDEIDTLGGQRGNSGEHEASRRVKSEFLVQMDGSQNKFDSRRVFVLAATNIPWELDEALRRRFEKRIFIPLPDIDARKKLIEKSMEGTPKSDEINYDDLAARTEGFSGADVVSLCRTAAINVLRRYDTKSLRGGELTAAMESLKAELVRNIDFEAALQAVSPSAGPDTMLKCKEWCDSFGAM
partner: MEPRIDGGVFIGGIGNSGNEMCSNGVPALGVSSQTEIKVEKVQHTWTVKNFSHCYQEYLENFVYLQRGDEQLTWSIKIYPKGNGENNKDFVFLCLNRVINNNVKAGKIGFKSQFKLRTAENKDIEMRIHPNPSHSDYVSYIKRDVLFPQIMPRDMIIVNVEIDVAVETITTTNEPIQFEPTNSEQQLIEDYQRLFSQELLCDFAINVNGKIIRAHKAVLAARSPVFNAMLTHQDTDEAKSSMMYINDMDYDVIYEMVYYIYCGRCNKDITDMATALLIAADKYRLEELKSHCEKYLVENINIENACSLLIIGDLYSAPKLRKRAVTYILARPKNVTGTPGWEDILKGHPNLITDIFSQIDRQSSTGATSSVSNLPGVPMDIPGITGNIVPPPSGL
B2: Protein maternal effect lethal 26 (Caenorhabditis elegans), Q94420 (parent)
chain: B1 partner
partner: B1 chain
B3: Protein maternal effect lethal 26 (Caenorhabditis elegans), Q94420 (parent)
chain: B1 partner

Variants of: B1
Conditions: with mel26_caeel mel-26, Q94420
With S92A the “effect of a mutation on the interaction” value was “disrupting interaction strength”.

Variants of: B2
Conditions: with ktna1_caeel mei-1, P34808
C94Y was tested, and the “effect of a mutation on the interaction” value was “disrupting interaction strength”.

Variants of: B3
Conditions: with pp4r1_caeel ppfr-1, G5ECH5
Sequence of pp4r1_caeel ppfr-1, G5ECH5 (G5ECH5 whole entry): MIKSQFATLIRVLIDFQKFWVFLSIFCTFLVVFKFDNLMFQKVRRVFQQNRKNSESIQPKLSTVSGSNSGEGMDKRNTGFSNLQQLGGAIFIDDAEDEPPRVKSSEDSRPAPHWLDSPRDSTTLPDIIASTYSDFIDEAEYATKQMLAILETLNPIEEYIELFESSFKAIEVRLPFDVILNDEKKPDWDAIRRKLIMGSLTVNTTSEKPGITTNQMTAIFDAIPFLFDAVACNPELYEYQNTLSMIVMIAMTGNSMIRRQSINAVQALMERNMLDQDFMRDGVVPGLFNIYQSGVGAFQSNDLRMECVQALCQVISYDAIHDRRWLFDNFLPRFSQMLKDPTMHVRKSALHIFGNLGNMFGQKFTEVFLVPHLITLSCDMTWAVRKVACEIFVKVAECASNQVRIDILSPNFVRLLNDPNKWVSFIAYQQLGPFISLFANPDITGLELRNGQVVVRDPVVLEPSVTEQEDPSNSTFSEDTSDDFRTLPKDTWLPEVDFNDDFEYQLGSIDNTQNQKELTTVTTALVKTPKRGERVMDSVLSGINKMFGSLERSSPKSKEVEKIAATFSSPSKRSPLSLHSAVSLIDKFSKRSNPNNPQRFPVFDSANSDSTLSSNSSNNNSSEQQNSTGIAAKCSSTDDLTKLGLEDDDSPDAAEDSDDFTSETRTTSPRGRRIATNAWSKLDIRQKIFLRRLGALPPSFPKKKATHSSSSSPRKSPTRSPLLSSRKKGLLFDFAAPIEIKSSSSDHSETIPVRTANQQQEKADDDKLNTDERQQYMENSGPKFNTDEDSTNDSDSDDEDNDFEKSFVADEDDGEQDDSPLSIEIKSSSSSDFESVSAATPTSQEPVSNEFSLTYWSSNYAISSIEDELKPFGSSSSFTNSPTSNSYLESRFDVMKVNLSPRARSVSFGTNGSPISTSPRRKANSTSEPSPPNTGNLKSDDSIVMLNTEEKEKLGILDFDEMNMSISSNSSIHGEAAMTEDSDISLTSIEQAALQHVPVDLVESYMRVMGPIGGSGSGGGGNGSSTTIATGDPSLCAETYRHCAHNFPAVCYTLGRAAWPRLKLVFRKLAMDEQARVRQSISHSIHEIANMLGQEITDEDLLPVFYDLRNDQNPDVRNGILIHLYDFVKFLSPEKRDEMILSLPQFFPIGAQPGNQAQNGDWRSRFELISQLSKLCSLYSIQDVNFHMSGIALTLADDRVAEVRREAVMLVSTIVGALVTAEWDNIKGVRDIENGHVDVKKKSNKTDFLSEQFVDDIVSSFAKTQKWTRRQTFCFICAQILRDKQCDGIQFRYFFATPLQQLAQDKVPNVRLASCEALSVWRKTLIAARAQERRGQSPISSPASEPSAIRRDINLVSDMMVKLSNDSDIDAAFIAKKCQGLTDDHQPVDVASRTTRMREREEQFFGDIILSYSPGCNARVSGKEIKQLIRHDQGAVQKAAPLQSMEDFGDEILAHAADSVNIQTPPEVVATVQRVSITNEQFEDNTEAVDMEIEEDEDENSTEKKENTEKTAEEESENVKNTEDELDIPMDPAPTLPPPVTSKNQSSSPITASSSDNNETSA
For C94Y, the “effect of a mutation on the interaction” value was “disrupting interaction strength”.

Source: IntAct's records for PubMed 23918937
